Source: US20260116980A1 (BEONE MEDICINES I, published 2026)

T1: human ECD-4Ig-B7H3-hFc (human, UniProt Q5ZPR3 29-466)
T1 construct: also called Human B7H3; human B7H3 antigen
T1 sequence: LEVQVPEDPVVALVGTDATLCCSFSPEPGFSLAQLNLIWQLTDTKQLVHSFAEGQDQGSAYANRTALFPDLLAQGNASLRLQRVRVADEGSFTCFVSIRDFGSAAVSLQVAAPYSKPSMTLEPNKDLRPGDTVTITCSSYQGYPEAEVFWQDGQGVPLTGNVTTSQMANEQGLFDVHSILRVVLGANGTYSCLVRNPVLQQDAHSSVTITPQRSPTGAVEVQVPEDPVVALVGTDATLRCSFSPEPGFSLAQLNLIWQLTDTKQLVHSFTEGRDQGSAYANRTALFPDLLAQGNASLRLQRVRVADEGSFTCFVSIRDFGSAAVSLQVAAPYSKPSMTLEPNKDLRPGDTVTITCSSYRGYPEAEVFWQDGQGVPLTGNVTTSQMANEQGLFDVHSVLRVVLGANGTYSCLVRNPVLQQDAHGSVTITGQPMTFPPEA

T2: human 4Ig-B7H3 on overexpressing cells (NK92mi/B7H3) (human, UniProt Q5ZPR3 29-534)
T2 construct: also called Human B7H3; native B7H3
T2 sequence: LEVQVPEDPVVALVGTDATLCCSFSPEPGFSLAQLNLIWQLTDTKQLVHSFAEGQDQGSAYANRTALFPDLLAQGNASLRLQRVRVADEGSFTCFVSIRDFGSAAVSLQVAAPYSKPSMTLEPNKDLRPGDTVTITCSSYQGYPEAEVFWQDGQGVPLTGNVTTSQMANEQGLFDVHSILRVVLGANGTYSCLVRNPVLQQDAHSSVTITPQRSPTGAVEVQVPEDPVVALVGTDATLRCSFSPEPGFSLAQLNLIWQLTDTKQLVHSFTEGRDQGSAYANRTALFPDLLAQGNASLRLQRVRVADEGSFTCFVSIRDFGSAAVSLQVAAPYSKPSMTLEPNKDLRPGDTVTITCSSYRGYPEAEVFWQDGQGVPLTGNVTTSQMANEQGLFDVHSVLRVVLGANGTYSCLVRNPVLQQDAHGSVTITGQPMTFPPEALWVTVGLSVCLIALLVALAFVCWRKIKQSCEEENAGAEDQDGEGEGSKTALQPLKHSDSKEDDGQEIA

T3: cyno B7H3 on overexpressing cells (cyno, UniProt A0A7N9CYV2 29-534)
T3 sequence: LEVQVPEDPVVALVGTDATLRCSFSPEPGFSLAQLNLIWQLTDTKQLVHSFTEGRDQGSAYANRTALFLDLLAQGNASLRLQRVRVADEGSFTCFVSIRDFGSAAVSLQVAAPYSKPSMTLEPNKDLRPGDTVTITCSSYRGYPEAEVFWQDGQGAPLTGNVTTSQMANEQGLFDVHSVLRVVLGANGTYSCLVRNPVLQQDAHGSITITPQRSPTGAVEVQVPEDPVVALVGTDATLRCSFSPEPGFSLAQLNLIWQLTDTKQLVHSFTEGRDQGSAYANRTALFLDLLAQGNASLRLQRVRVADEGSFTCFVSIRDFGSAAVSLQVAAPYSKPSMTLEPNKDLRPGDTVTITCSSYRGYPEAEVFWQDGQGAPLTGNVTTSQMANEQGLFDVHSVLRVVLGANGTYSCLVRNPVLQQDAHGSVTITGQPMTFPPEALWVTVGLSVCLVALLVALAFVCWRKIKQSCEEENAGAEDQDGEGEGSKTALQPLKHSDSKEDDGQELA

T4: ECD of human 4Ig-B7H3 (Sinobiological, Cat: 11188-H08H) (human, UniProt Q5ZPR3 29-466)
T4 construct: Bought protein; also called recombinant B7H3
T4 sequence: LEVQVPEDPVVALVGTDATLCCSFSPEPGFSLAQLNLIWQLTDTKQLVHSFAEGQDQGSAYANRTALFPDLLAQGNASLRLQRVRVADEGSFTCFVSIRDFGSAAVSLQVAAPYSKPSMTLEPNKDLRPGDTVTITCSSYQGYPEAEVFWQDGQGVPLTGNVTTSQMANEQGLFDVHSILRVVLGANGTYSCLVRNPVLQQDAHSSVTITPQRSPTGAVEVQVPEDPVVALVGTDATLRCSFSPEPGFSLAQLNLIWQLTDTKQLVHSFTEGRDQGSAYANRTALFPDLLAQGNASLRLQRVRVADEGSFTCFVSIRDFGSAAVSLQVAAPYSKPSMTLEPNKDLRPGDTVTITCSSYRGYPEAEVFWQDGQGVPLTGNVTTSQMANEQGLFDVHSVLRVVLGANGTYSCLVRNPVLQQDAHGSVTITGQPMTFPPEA


What was measured:
human ECD-4Ig-B7H3-hFc = target: T1, human ECD-4Ig-B7H3-hFc; assay: SPR (BIAcore T-200), antibody captured by anti-mouse IgG Fc, antigen in flow, 1:1 Langmuir model
Description: After immobilization, serial dilutions of the ectodomain of human or cyno B7H3 were passed over the chip. […] Thus, the light gray lines are serial dilutions of human B7H3 protein, and the dark gray lines are fitted curves corresponding to different human B7H3 concentrations. The dotted line is the highest concentration of B7H3 protein. The results were used to calculate the rates of association (Kon) and dissociation (Koff) for BGA-3295.
Briefly, anti-mouse IgG Fc antibody was immobilized on an activated CM5 biosensor chip (Cat. No. BR100530, GE Life Sciences). Purified antibodies were flowed over the chip surface and captured by anti-mouse IgG Fc antibody. Then a serial dilution of human ECD-4Ig-B7H3-hFc was flowed over the chip surface and changes in surface plasmon resonance signals were analyzed to calculate the association rates (kₒₙ) and dissociation rates (koff) by using the one-to-one Langmuir binding model (BIA Evaluation Software, GE Life Sciences). The equilibrium dissociation constant (KD) was calculated as the ratio koff/kₒₙ.

[1] = target: T2, human 4Ig-B7H3 on overexpressing cells …; assay: FACS on human 4Ig-B7H3 overexpressing cells
Description: (§1) The binding affinity of anti-B7H3 mAb to human 4Ig-B7H3 and cyno B7H3 overexpressing cell lines were determined by FACS. Briefly, human or cyno B7H3 overexpressing cells were incubated with serially diluted purified antibodies, washed, and incubated with anti-mouse IgG secondary Ab conjugated to APC. After incubation and washing, fluorescence was measured by flow cytometry.

[2] = target: T3, cyno B7H3 on overexpressing cells; assay: FACS on cyno B7H3 overexpressing cells
Description: as §1

[3] = target: T4, ECD of human 4Ig-B7H3 (Sinobiological, …); assay: SPR, antibody captured on anti-human Fc surface, Test 1
Description: (§2) For affinity determination, antibodies were captured by an anti-human Fc surface, and used in the affinity-assay based on surface plasmon resonance (SPR) technology. The results of SPR-determined binding profiles of anti-B7H3 antibodies to the ECD of human 4Ig-B7H3 (Sinobiological, Cat: 11188-H08H) are summarized in Table 5.

[4] = target: T4, ECD of human 4Ig-B7H3 (Sinobiological, …); assay: SPR, antibody captured on anti-human Fc surface, Test 2
Description: as §2

[5] = target: T2, human 4Ig-B7H3 on overexpressing cells …; assay: FACS on live NK92mi/B7H3 cells, goat anti-human IgG detection, Test1
Description: (§3) Goat anti-human IgG was used as the second antibody to detect antibody binding to the cell surface. EC₅₀ values for dose-dependent binding to human native B7H3 were determined by fitting the dose-response data to the four-parameter logistic model with GraphPad Prism.

[6] = target: T2, human 4Ig-B7H3 on overexpressing cells …; assay: FACS on live NK92mi/B7H3 cells, goat anti-human IgG detection, Test2
Description: as §3

Row | Kd [3] | koff [3] | kon [3] | Kd [4] | koff [4] | kon [4] | Binder | further results
1 |  |  |  |  |  |  | BGA-3726 (purified anti-B7H3 mAb as used in Examples 2-4) (antibody, V domains shown, It was captured by anti-mouse IgG Fc in SPR and detected with anti-mouse IgG in FACS; The source mice make human variable and rat constant regions; also called BGA-3276) VH: QVQLQESGPGLVKPSGTLSLTCAVSGGSISTSNWWNWVRQSPGKGLEWIGEIYPTGNTNYSPSLKSRVTISIDKSKNQFSLKLNSVTAADTAVYYCARGWNWFDPWGQGTLVTVSS VL: EIVLTQSPGTLSLSPGERATLSCRTSQSINGILLAWYQQKPGQAPRLLIYGASSRATGIPDRFSGSGSGTDFTLSISRLEPEDFAVYYCQQYGSSPRTFGQGTKVEIK | Kd (human ECD-4Ig-B7H3-hFc): 0.0124 nM; koff (human ECD-4Ig-B7H3-hFc): 4.49e-06 s⁻¹; kon (human ECD-4Ig-B7H3-hFc): 363000 M⁻¹ s⁻¹; EC50 [1]: 1.91 nM; EC50 [2]: 1.32 nM
2 | 0.424 nM | 0.000136 s⁻¹ | 321000 M⁻¹ s⁻¹ | 0.47 nM | 0.000207 s⁻¹ | 442000 M⁻¹ s⁻¹ | BGA-3726 in human full-length format (human IgG1 variant IgG1mf / kappa) (antibody, V domains shown) VH: QVQLQESGPGLVKPSGTLSLTCAVSGGSISTSNWWNWVRQSPGKGLEWIGEIYPTGNTNYSPSLKSRVTISIDKSKNQFSLKLNSVTAADTAVYYCARGWNWFDPWGQGTLVTVSS VL: EIVLTQSPGTLSLSPGERATLSCRTSQSINGILLAWYQQKPGQAPRLLIYGASSRATGIPDRFSGSGSGTDFTLSISRLEPEDFAVYYCQQYGSSPRTFGQGTKVEIKR | EC50 [5]: 1.44 nM
3 | 0.596 nM | 0.000171 s⁻¹ | 288000 M⁻¹ s⁻¹ |  |  |  | BGA-4826 (BGA-3726 variant comprising W34Y in HCDR1) (antibody, human IgG1, kappa, V domains shown) VH: QVQLQESGPGLVKPSGTLSLTCAVSGGSISTSNYWNWVRQSPGKGLEWIGEIYPTGNTNYSPSLKSRVTISIDKSKNQFSLKLNSVTAADTAVYYCARGWNWFDPWGQGTLVTVSS VL: EIVLTQSPGTLSLSPGERATLSCRTSQSINGILLAWYQQKPGQAPRLLIYGASSRATGIPDRFSGSGSGTDFTLSISRLEPEDFAVYYCQQYGSSPRTFGQGTKVEIKR | 
4 | 0.632 nM | 0.000199 s⁻¹ | 315000 M⁻¹ s⁻¹ |  |  |  | BGA-4498 (BGA-3726 variant comprising W96Y in HCDR3) (antibody, human IgG1, kappa, V domains shown) VH: QVQLQESGPGLVKPSGTLSLTCAVSGGSISTSNWWNWVRQSPGKGLEWIGEIYPTGNTNYSPSLKSRVTISIDKSKNQFSLKLNSVTAADTAVYYCARGYNWFDPWGQGTLVTVSS VL: EIVLTQSPGTLSLSPGERATLSCRTSQSINGILLAWYQQKPGQAPRLLIYGASSRATGIPDRFSGSGSGTDFTLSISRLEPEDFAVYYCQQYGSSPRTFGQGTKVEIKR | 
5 |  |  |  | 1.11 nM | 0.000326 s⁻¹ | 295000 M⁻¹ s⁻¹ | BGA-5488 (W34Y in HCDR1, W96Y and W98Y in HCDR3 and G30A in LCDR1 based on BGA-3726) (antibody, human IgG1, kappa, V domains shown) VH: QVQLQESGPGLVKPSGTLSLTCAVSGGSISTSNYWNWVRQSPGKGLEWIGEIYPTGNTNYSPSLKSRVTISIDKSKNQFSLKLNSVTAADTAVYYCARGYNYFDPWGQGTLVTVSS VL: EIVLTQSPGTLSLSPGERATLSCRTSQSINAILLAWYQQKPGQAPRLLIYGASSRATGIPDRFSGSGSGTDFTLSISRLEPEDFAVYYCQQYGSSPRTFGQGTKVEIKR | EC50 [6]: 1.45 nM
6 |  |  |  | 0.443 nM | 0.000224 s⁻¹ | 506000 M⁻¹ s⁻¹ | BGA-6938 (W34Y in HCDR1, W96Y in HCDR3 and G30A in LCDR1 based on BGA-3726), human IgG1 variant IgG1mf / kappa format (antibody, V domains shown) VH: QVQLQESGPGLVKPSGTLSLTCAVSGGSISTSNYWNWVRQSPGKGLEWIGEIYPTGNTNYSPSLKSRVTISIDKSKNQFSLKLNSVTAADTAVYYCARGYNWFDPWGQGTLVTVSS VL: EIVLTQSPGTLSLSPGERATLSCRTSQSINAILLAWYQQKPGQAPRLLIYGASSRATGIPDRFSGSGSGTDFTLSISRLEPEDFAVYYCQQYGSSPRTFGQGTKVEIKR | EC50 [6]: 1.19 nM
7 |  |  | 142000 M⁻¹ s⁻¹ |  |  |  | BGA-4269 (BGA-3726 variant comprising W98Y in HCDR3) (antibody, human IgG1, kappa, V domains shown) VH: QVQLQESGPGLVKPSGTLSLTCAVSGGSISTSNWWNWVRQSPGKGLEWIGEIYPTGNTNYSPSLKSRVTISIDKSKNQFSLKLNSVTAADTAVYYCARGWNYFDPWGQGTLVTVSS VL: EIVLTQSPGTLSLSPGERATLSCRTSQSINGILLAWYQQKPGQAPRLLIYGASSRATGIPDRFSGSGSGTDFTLSISRLEPEDFAVYYCQQYGSSPRTFGQGTKVEIKR | 
8 | 0.635 nM | 0.000237 s⁻¹ | 373000 M⁻¹ s⁻¹ |  |  |  | BGA-4380 (BGA-3726 variant comprising N29Q in LCDR1) (antibody, human IgG1, kappa, V domains shown) VH: QVQLQESGPGLVKPSGTLSLTCAVSGGSISTSNWWNWVRQSPGKGLEWIGEIYPTGNTNYSPSLKSRVTISIDKSKNQFSLKLNSVTAADTAVYYCARGWNWFDPWGQGTLVTVSS VL: EIVLTQSPGTLSLSPGERATLSCRTSQSIQGILLAWYQQKPGQAPRLLIYGASSRATGIPDRFSGSGSGTDFTLSISRLEPEDFAVYYCQQYGSSPRTFGQGTKVEIKR | 
9 | 0.308 nM | 0.000128 s⁻¹ | 414000 M⁻¹ s⁻¹ |  |  |  | BGA-4265 (BGA-3726 variant comprising G30A in LCDR1) (antibody, human IgG1, kappa, V domains shown) VH: QVQLQESGPGLVKPSGTLSLTCAVSGGSISTSNWWNWVRQSPGKGLEWIGEIYPTGNTNYSPSLKSRVTISIDKSKNQFSLKLNSVTAADTAVYYCARGWNWFDPWGQGTLVTVSS VL: EIVLTQSPGTLSLSPGERATLSCRTSQSINAILLAWYQQKPGQAPRLLIYGASSRATGIPDRFSGSGSGTDFTLSISRLEPEDFAVYYCQQYGSSPRTFGQGTKVEIKR | 
